Each binder was assayed against Mesothelin (SwissProt reference Q13421-3) (Homo sapiens, UniProt Q13421 37-622) (assay: cell-based or functional assay).

IC50 (nM), HT29 meso+ cells, MTT proliferation assay | Binder
0.03 nM | Example 134, conjugate of anti-mesothelin antibody MF-Ta (antibody, human IgG1, lambda, V domains shown, toxophore-linker on Cys sulfur, sites not given) VH: QVELVQSGAEVKKPGESLKISCKGSGYSFTSYWIGWVRQAPGKGLEWMGIIDPGDSRTRYSPSFQGQVTISADKSISTAYLQWSSLKASDTAMYYCARGQLYGGTYMDGWGQGTLVTVSS VL: DIALTQPASVSGSPGQSITISCTGTSSDIGGYNSVSWYQQHPGKAPKLMIYGVNNRPSGVSNRFSGSKSGNTASLTISGLQAEDEADYYCSSYDIESATPVFGGGTKLTVLG
0.3 nM | Example 138, conjugate of anti-mesothelin antibody MF-Ta (antibody, human IgG1, lambda, V domains shown, toxophore-linker on Cys sulfur, sites not given) VH: QVELVQSGAEVKKPGESLKISCKGSGYSFTSYWIGWVRQAPGKGLEWMGIIDPGDSRTRYSPSFQGQVTISADKSISTAYLQWSSLKASDTAMYYCARGQLYGGTYMDGWGQGTLVTVSS VL: DIALTQPASVSGSPGQSITISCTGTSSDIGGYNSVSWYQQHPGKAPKLMIYGVNNRPSGVSNRFSGSKSGNTASLTISGLQAEDEADYYCSSYDIESATPVFGGGTKLTVLG
6.8 nM | Example 140, conjugate of anti-mesothelin antibody MF-Ta (antibody, human IgG1, lambda, V domains shown, toxophore-linker on Lys NH, sites not given) VH: QVELVQSGAEVKKPGESLKISCKGSGYSFTSYWIGWVRQAPGKGLEWMGIIDPGDSRTRYSPSFQGQVTISADKSISTAYLQWSSLKASDTAMYYCARGQLYGGTYMDGWGQGTLVTVSS VL: DIALTQPASVSGSPGQSITISCTGTSSDIGGYNSVSWYQQHPGKAPKLMIYGVNNRPSGVSNRFSGSKSGNTASLTISGLQAEDEADYYCSSYDIESATPVFGGGTKLTVLG
0.3 nM | Example 143, conjugate of anti-mesothelin antibody MF-Ta (antibody, human IgG1, lambda, V domains shown, toxophore-linker on Lys NH, sites not given) VH: QVELVQSGAEVKKPGESLKISCKGSGYSFTSYWIGWVRQAPGKGLEWMGIIDPGDSRTRYSPSFQGQVTISADKSISTAYLQWSSLKASDTAMYYCARGQLYGGTYMDGWGQGTLVTVSS VL: DIALTQPASVSGSPGQSITISCTGTSSDIGGYNSVSWYQQHPGKAPKLMIYGVNNRPSGVSNRFSGSKSGNTASLTISGLQAEDEADYYCSSYDIESATPVFGGGTKLTVLG
13 nM | Example 146, conjugate of anti-mesothelin antibody MF-Ta (antibody, human IgG1, lambda, V domains shown, toxophore-linker on Lys NH, sites not given) VH: QVELVQSGAEVKKPGESLKISCKGSGYSFTSYWIGWVRQAPGKGLEWMGIIDPGDSRTRYSPSFQGQVTISADKSISTAYLQWSSLKASDTAMYYCARGQLYGGTYMDGWGQGTLVTVSS VL: DIALTQPASVSGSPGQSITISCTGTSSDIGGYNSVSWYQQHPGKAPKLMIYGVNNRPSGVSNRFSGSKSGNTASLTISGLQAEDEADYYCSSYDIESATPVFGGGTKLTVLG
3.1 nM | Example 149, conjugate of anti-mesothelin antibody MF-Ta (antibody, human IgG1, lambda, V domains shown, toxophore-linker on Lys NH, sites not given) VH: QVELVQSGAEVKKPGESLKISCKGSGYSFTSYWIGWVRQAPGKGLEWMGIIDPGDSRTRYSPSFQGQVTISADKSISTAYLQWSSLKASDTAMYYCARGQLYGGTYMDGWGQGTLVTVSS VL: DIALTQPASVSGSPGQSITISCTGTSSDIGGYNSVSWYQQHPGKAPKLMIYGVNNRPSGVSNRFSGSKSGNTASLTISGLQAEDEADYYCSSYDIESATPVFGGGTKLTVLG
43 nM | Example 141, conjugate of anti-mesothelin antibody MF-Ta (antibody, human IgG1, lambda, V domains shown, toxophore-linker on Cys sulfur, sites not given) VH: QVELVQSGAEVKKPGESLKISCKGSGYSFTSYWIGWVRQAPGKGLEWMGIIDPGDSRTRYSPSFQGQVTISADKSISTAYLQWSSLKASDTAMYYCARGQLYGGTYMDGWGQGTLVTVSS VL: DIALTQPASVSGSPGQSITISCTGTSSDIGGYNSVSWYQQHPGKAPKLMIYGVNNRPSGVSNRFSGSKSGNTASLTISGLQAEDEADYYCSSYDIESATPVFGGGTKLTVLG
0.27 nM | Example 142, conjugate of anti-mesothelin antibody MF-Ta (antibody, human IgG1, lambda, V domains shown, toxophore-linker on Cys sulfur, sites not given) VH: QVELVQSGAEVKKPGESLKISCKGSGYSFTSYWIGWVRQAPGKGLEWMGIIDPGDSRTRYSPSFQGQVTISADKSISTAYLQWSSLKASDTAMYYCARGQLYGGTYMDGWGQGTLVTVSS VL: DIALTQPASVSGSPGQSITISCTGTSSDIGGYNSVSWYQQHPGKAPKLMIYGVNNRPSGVSNRFSGSKSGNTASLTISGLQAEDEADYYCSSYDIESATPVFGGGTKLTVLG
2.2 nM | Example 154, conjugate of anti-mesothelin antibody MF-Ta (antibody, human IgG1, lambda, V domains shown, toxophore-linker on Cys sulfur, sites not given) VH: QVELVQSGAEVKKPGESLKISCKGSGYSFTSYWIGWVRQAPGKGLEWMGIIDPGDSRTRYSPSFQGQVTISADKSISTAYLQWSSLKASDTAMYYCARGQLYGGTYMDGWGQGTLVTVSS VL: DIALTQPASVSGSPGQSITISCTGTSSDIGGYNSVSWYQQHPGKAPKLMIYGVNNRPSGVSNRFSGSKSGNTASLTISGLQAEDEADYYCSSYDIESATPVFGGGTKLTVLG
0.25 nM | Example 135, conjugate of anti-mesothelin antibody MF-Ta (antibody, human IgG1, lambda, V domains shown, toxophore-linker on Cys sulfur, sites not given) VH: QVELVQSGAEVKKPGESLKISCKGSGYSFTSYWIGWVRQAPGKGLEWMGIIDPGDSRTRYSPSFQGQVTISADKSISTAYLQWSSLKASDTAMYYCARGQLYGGTYMDGWGQGTLVTVSS VL: DIALTQPASVSGSPGQSITISCTGTSSDIGGYNSVSWYQQHPGKAPKLMIYGVNNRPSGVSNRFSGSKSGNTASLTISGLQAEDEADYYCSSYDIESATPVFGGGTKLTVLG
< 0.1 nM | Example 150, conjugate of anti-mesothelin antibody MF-Ta (antibody, human IgG1, lambda, V domains shown, toxophore-linker on Lys NH, sites not given) VH: QVELVQSGAEVKKPGESLKISCKGSGYSFTSYWIGWVRQAPGKGLEWMGIIDPGDSRTRYSPSFQGQVTISADKSISTAYLQWSSLKASDTAMYYCARGQLYGGTYMDGWGQGTLVTVSS VL: DIALTQPASVSGSPGQSITISCTGTSSDIGGYNSVSWYQQHPGKAPKLMIYGVNNRPSGVSNRFSGSKSGNTASLTISGLQAEDEADYYCSSYDIESATPVFGGGTKLTVLG
2.7 nM | Example 144, conjugate of anti-mesothelin antibody MF-Ta (antibody, human IgG1, lambda, V domains shown, toxophore-linker on Lys NH, sites not given) VH: QVELVQSGAEVKKPGESLKISCKGSGYSFTSYWIGWVRQAPGKGLEWMGIIDPGDSRTRYSPSFQGQVTISADKSISTAYLQWSSLKASDTAMYYCARGQLYGGTYMDGWGQGTLVTVSS VL: DIALTQPASVSGSPGQSITISCTGTSSDIGGYNSVSWYQQHPGKAPKLMIYGVNNRPSGVSNRFSGSKSGNTASLTISGLQAEDEADYYCSSYDIESATPVFGGGTKLTVLG
1.6 nM | Example 136, conjugate of anti-mesothelin antibody MF-Ta (antibody, human IgG1, lambda, V domains shown, toxophore-linker on Lys NH, sites not given) VH: QVELVQSGAEVKKPGESLKISCKGSGYSFTSYWIGWVRQAPGKGLEWMGIIDPGDSRTRYSPSFQGQVTISADKSISTAYLQWSSLKASDTAMYYCARGQLYGGTYMDGWGQGTLVTVSS VL: DIALTQPASVSGSPGQSITISCTGTSSDIGGYNSVSWYQQHPGKAPKLMIYGVNNRPSGVSNRFSGSKSGNTASLTISGLQAEDEADYYCSSYDIESATPVFGGGTKLTVLG
0.04 nM | Example 137, conjugate of anti-mesothelin antibody MF-Ta (antibody, human IgG1, lambda, V domains shown, toxophore-linker on Cys sulfur, sites not given) VH: QVELVQSGAEVKKPGESLKISCKGSGYSFTSYWIGWVRQAPGKGLEWMGIIDPGDSRTRYSPSFQGQVTISADKSISTAYLQWSSLKASDTAMYYCARGQLYGGTYMDGWGQGTLVTVSS VL: DIALTQPASVSGSPGQSITISCTGTSSDIGGYNSVSWYQQHPGKAPKLMIYGVNNRPSGVSNRFSGSKSGNTASLTISGLQAEDEADYYCSSYDIESATPVFGGGTKLTVLG
425 nM | Example 148, conjugate of anti-mesothelin antibody MF-Ta (antibody, human IgG1, lambda, V domains shown, toxophore-linker on Lys NH, sites not given) VH: QVELVQSGAEVKKPGESLKISCKGSGYSFTSYWIGWVRQAPGKGLEWMGIIDPGDSRTRYSPSFQGQVTISADKSISTAYLQWSSLKASDTAMYYCARGQLYGGTYMDGWGQGTLVTVSS VL: DIALTQPASVSGSPGQSITISCTGTSSDIGGYNSVSWYQQHPGKAPKLMIYGVNNRPSGVSNRFSGSKSGNTASLTISGLQAEDEADYYCSSYDIESATPVFGGGTKLTVLG
4.1 nM | Example 152, conjugate of anti-mesothelin antibody MF-Ta (antibody, human IgG1, lambda, V domains shown, toxophore-linker on Lys NH, sites not given) VH: QVELVQSGAEVKKPGESLKISCKGSGYSFTSYWIGWVRQAPGKGLEWMGIIDPGDSRTRYSPSFQGQVTISADKSISTAYLQWSSLKASDTAMYYCARGQLYGGTYMDGWGQGTLVTVSS VL: DIALTQPASVSGSPGQSITISCTGTSSDIGGYNSVSWYQQHPGKAPKLMIYGVNNRPSGVSNRFSGSKSGNTASLTISGLQAEDEADYYCSSYDIESATPVFGGGTKLTVLG
> 1000 nM | Example 151, conjugate of anti-mesothelin antibody MF-Ta (antibody, human IgG1, lambda, V domains shown, toxophore-linker on Cys sulfur, sites not given) VH: QVELVQSGAEVKKPGESLKISCKGSGYSFTSYWIGWVRQAPGKGLEWMGIIDPGDSRTRYSPSFQGQVTISADKSISTAYLQWSSLKASDTAMYYCARGQLYGGTYMDGWGQGTLVTVSS VL: DIALTQPASVSGSPGQSITISCTGTSSDIGGYNSVSWYQQHPGKAPKLMIYGVNNRPSGVSNRFSGSKSGNTASLTISGLQAEDEADYYCSSYDIESATPVFGGGTKLTVLG
7.4 nM | Example 145, conjugate of anti-mesothelin antibody MF-Ta (antibody, human IgG1, lambda, V domains shown, toxophore-linker on Lys NH, sites not given) VH: QVELVQSGAEVKKPGESLKISCKGSGYSFTSYWIGWVRQAPGKGLEWMGIIDPGDSRTRYSPSFQGQVTISADKSISTAYLQWSSLKASDTAMYYCARGQLYGGTYMDGWGQGTLVTVSS VL: DIALTQPASVSGSPGQSITISCTGTSSDIGGYNSVSWYQQHPGKAPKLMIYGVNNRPSGVSNRFSGSKSGNTASLTISGLQAEDEADYYCSSYDIESATPVFGGGTKLTVLG
70 nM | Example 139, conjugate of anti-mesothelin antibody MF-Ta (antibody, human IgG1, lambda, V domains shown, toxophore-linker on Cys sulfur, sites not given) VH: QVELVQSGAEVKKPGESLKISCKGSGYSFTSYWIGWVRQAPGKGLEWMGIIDPGDSRTRYSPSFQGQVTISADKSISTAYLQWSSLKASDTAMYYCARGQLYGGTYMDGWGQGTLVTVSS VL: DIALTQPASVSGSPGQSITISCTGTSSDIGGYNSVSWYQQHPGKAPKLMIYGVNNRPSGVSNRFSGSKSGNTASLTISGLQAEDEADYYCSSYDIESATPVFGGGTKLTVLG
5.6 nM | Example 147, conjugate of anti-mesothelin antibody MF-Ta (antibody, human IgG1, lambda, V domains shown, toxophore-linker on Lys NH, sites not given) VH: QVELVQSGAEVKKPGESLKISCKGSGYSFTSYWIGWVRQAPGKGLEWMGIIDPGDSRTRYSPSFQGQVTISADKSISTAYLQWSSLKASDTAMYYCARGQLYGGTYMDGWGQGTLVTVSS VL: DIALTQPASVSGSPGQSITISCTGTSSDIGGYNSVSWYQQHPGKAPKLMIYGVNNRPSGVSNRFSGSKSGNTASLTISGLQAEDEADYYCSSYDIESATPVFGGGTKLTVLG
30 nM | Example 153, conjugate of anti-mesothelin antibody MF-Ta (antibody, human IgG1, lambda, V domains shown, toxophore-linker on Cys sulfur, sites not given) VH: QVELVQSGAEVKKPGESLKISCKGSGYSFTSYWIGWVRQAPGKGLEWMGIIDPGDSRTRYSPSFQGQVTISADKSISTAYLQWSSLKASDTAMYYCARGQLYGGTYMDGWGQGTLVTVSS VL: DIALTQPASVSGSPGQSITISCTGTSSDIGGYNSVSWYQQHPGKAPKLMIYGVNNRPSGVSNRFSGSKSGNTASLTISGLQAEDEADYYCSSYDIESATPVFGGGTKLTVLG

— patent publication US20150246136A1 (Bayer, published 2015)
